This is an account of results in article PMC11804706 (Proceedings of the National Academy of Sciences of the …, 2025).

The target in assay [1] is DnaJ, wild type (E. coli) (UniProt P08622). Put plainly: pull-down.
For another assay, the target named is ClpB, wild type (E. coli, UniProt P63284 1-857). Put plainly: BLI.

What is called Kd is the constant that tells how readily two partners part at equilibrium. Low values mean higher affinity, high ones lower affinity.

ClpB, wild type, sequence (P63284 whole entry): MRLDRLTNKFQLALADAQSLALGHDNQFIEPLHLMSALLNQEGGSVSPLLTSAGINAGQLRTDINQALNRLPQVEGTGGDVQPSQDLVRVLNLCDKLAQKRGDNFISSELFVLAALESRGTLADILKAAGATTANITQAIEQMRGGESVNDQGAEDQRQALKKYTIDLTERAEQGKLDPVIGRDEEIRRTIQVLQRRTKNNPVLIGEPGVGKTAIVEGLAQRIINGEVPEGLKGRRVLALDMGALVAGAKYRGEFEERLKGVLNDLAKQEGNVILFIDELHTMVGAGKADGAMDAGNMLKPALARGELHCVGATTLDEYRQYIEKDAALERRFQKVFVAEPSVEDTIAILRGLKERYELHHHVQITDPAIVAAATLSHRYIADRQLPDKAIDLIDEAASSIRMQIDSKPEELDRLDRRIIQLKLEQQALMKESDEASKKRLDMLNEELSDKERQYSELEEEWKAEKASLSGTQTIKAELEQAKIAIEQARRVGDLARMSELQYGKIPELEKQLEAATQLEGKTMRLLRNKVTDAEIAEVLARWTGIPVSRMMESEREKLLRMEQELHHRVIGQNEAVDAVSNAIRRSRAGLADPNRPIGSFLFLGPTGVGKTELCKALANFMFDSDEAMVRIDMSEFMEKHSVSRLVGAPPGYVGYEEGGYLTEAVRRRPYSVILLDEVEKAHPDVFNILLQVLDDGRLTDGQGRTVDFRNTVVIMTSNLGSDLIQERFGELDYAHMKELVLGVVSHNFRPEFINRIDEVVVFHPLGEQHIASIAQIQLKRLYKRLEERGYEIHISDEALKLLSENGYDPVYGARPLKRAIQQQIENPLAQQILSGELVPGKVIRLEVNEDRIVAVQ

In the case of “ΔN ClpB (ClpB mutant lacking the NTD) (domain or fragment)”, the binding as percent of wild-type ClpB in assay [1] turned out to be 40%.

B1: DnaJ, wild type (natural protein)
chain: MAKQDYYEILGVSKTAEEREIRKAYKRLAMKYHPDRNQGDKEAEAKFKEIKEAYEVLTDSQKRAAYDQYGHAAFEQGGMGGGGFGGGADFSDIFGDVFGDIFGGGRGRQRAARGADLRYNMELTLEEAVRGVTKEIRIPTLEECDVCHGSGAKPGTQPQTCPTCHGSGQVQMRQGFFAVQQTCPHCQGRGTLIKDPCNKCHGHGRVERSKTLSVKIPAGVDTGDRIRLAGEGEAGEHGAPAGDLYVQVQVKQHPIFEREGNNLYCEVPINFAMAALGGEIEVPTLDGRVKLKVPGETQTGKLFRMRGKGVKSVRGGAQGDLLCRVVVETPVGLNERQKQLLQELQESFGGPTGEHNSPRSKSFFDGVKKFFDDLTR
modifications: biotin (DnaJ-biotin in the pull-down assays with ClpB; sites not stated)
B1 gave a Kd in the assay with ClpB, wild type of 55.2 ± 9.9 nM.
